T1: KCNE4-loopBAD-GFP (UniProt Q9WTW3 1-170, biotin on the loopBAD tag (BirA biotin ligase co-expressed))
T1 construct: KCNE4; also called KCNE4-pEGFP with loopBAD; KCNE4-GFP; source: HEK-293, electroporated together with BirA, on the cell surface; not shown: loopBAD (biotin acceptor domain), N-terminal, kept
T1 sequence (looked up): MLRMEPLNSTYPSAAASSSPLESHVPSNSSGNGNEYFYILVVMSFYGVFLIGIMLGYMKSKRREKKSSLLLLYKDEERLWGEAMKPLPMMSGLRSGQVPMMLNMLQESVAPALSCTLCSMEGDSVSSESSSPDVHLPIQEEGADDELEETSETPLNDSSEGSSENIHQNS

B1: Kv1.3-loopBAD-GFP (natural protein, UniProt P15384 1-525, looked up)
chain: MTVVPGDHLLEPEAAGGGGGDPPQGGCVSGGGCDRYEPLPPALPAAGEQDCCGERVVINISGLRFETQLKTLCQFPETLLGDPKRRMRYFDPLRNEYFFDRNRPSFDAILYYYQSGGRIRRPVNVPIDIFSEEIRFYQLGEEAMEKFREDEGFLREEERPLPRRDFQRQVWLLFEYPESSGPARGIAIVSVLVILISIVIFCLETLPEFRDEKDYPASPSQDVFEAANNSTSGASSGASSFSDPFFVVETLCIIWFSFELLVRFFACPSKATFSRNIMNLIDIVAIIPYFITLGTELAERQGNGQQAMSLAILRVIRLVRVFRIFKLSRHSKGLQILGQTLKASMRELGLLIFFLFIGVILFSSAVYFAEADDPSSGFNSIPDAFWWAVVTMTTVGYGDMHPVTIGGKIVGSLCAIAGVLTIALPVPVIVSNFNYFYHRETEGEEQAQYMHVGSCQHLSSSAEELRKARSNSTLSKSEYMVIEEGGMNHSAFPQTPFKTGNSTATCTTNNNPNSCVNIKKIFTDV
modifications: biotin on the loopBAD tag (BirA biotin ligase co-expressed)
notes: voltage-gated potassium channel Kv1.3; also called GFP-Kv1.3-loopBAD; pEGFP-Kv1.3 with loopBAD; source: HEK-293, electroporated together with BirA, on the cell surface; not shown: loopBAD (biotin acceptor domain), internal (first extracellular loop), kept
B2: Kv1.3-Apple (natural protein, UniProt P15384 1-525, looked up)
chain: B1 chain
notes: voltage-gated potassium channel Kv1.3; also called Kv1.3 tagged with mApple; source: HEK-293, electroporated, on the cell surface

Tests used:
[1] = target: the molecule itself; experiment: counting of GFP bleaching steps of single spots (TIRF microscopy); live HEK-293 cells with Kv1.3-loopBAD-GFP and BirA; biotinylated channels at the cell surface immobilised with NeutrAvidin (50 nM) on biotin-collagen-coated glass; step distribution fitted to a binomial with p = 0.67
[2] = target: T1, KCNE4-loopBAD-GFP; experiment: counting of GFP bleaching steps of single spots (TIRF microscopy); live HEK-293 cells with KCNE4-loopBAD-GFP, Kv1.3-Apple and BirA; biotinylated KCNE4 at the cell surface immobilised with NeutrAvidin (50 nM); motionless GFP spots colocalising with Kv1.3-Apple; details: partners not purified

Row | Binder | stoichiometry N [1] | stoichiometry N [2]
1 | B1 | 4 | 
2 | B2 |  | ≤ 4 KCNE4 per Kv1.3 channel
